The source of these data is patent US20210238279A1 (Johns Hopkins, published 2021).

The target in one experiment is T1, mouse ZnT8-His (mouse, UniProt Q8BGG0 1-367, limits assumed).
T1 construct: Over-expressed in HEK293 cells, solubilized with DDM and immobilized on Ni-NTA plates, or SDS-denatured on immunoblots; not shown: C-terminal poly-histidine tag
T1 sequence (looked up): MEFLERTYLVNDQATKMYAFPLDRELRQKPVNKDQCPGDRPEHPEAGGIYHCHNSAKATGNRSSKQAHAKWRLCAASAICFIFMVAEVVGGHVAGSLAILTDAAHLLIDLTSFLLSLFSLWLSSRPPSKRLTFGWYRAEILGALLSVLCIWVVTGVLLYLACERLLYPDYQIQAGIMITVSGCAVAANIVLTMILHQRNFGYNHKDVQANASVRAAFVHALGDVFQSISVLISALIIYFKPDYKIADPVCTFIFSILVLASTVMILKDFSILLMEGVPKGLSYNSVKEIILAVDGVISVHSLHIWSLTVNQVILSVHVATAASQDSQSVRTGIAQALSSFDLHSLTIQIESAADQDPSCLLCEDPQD
As to the kind of experiment: ELISA titration on mouse ZnT8-His immobilized on Ni-NTA plate; apparent binding affinity, one-component fit; DDM-solubilized mouse ZnT8 immobilized to Ni-NTA plate via His-tag; mAb titration. An excerpt:
FIG. 7A-7D. mAb binding specificities (FIG. 7A) mAb binding to ZnT8-His immobilized to Ni-NTA plate. Bound mAb20 (red) or mAb39 (magenta) was detected by an HRP-conjugated secondary antibody. Solid lines are least-squares fits of binding datapoints to a one-component binding process. Error bars are standard errors (n=8). (FIG. 7B) SDS-denatured mouse ZnT8-His (labeled as M) and human ZnT8-His (labeled as H) on immunoblots were detected by mAb20 or mAb39 as indicated. […] (FIG. 7C) Detection of endogenous human ZnT8 in EndoC-βH cells by mAb20 or […] immunoblotting. An equal amount of EndoC-βH lysate (5 μg total protein) was loaded to each lane. (FIG. 7D) Immunoblotting of HEK lysates with or with over-expression of a ZnT homolog as indicated. An approximately equal amount of total lysate protein (5 μg) was located to each lane, probed by either mAb20, mAb39, or anti-FALG antibody as indicated. FIG. 8. HTRF response to human ZnT8, mouse ZnT8 and human ZnT3.
Binding specificities. […] Of note, the epitope-masking effect of ZnT8 immobilization weakened the apparent binding affinities of both mAbs as compared to the affinities determined by flow-cytometry, and such a weakening effect was more pronounced for mAb39, probably due to a closer proximity of the mAb39 epitope to the C-terminal His-tag. Next, we compared the immunoreactivities of mAbs to denatured ZnT8.
A general note: ELISA stands for enzyme-linked immunosorbent assay.

The target of experiment [1] is T2, human ZnT8 over-expressed in HEK293 cells (human, UniProt Q8IWU4 1-369).
T2 construct: whole, on cells; Cells were fixed and permeabilized for immunofluorescence and flow cytometry (intracellular staining); The same id is used for the detergent lysates of over-expressing cells in the HTRF assay; also called ZnT8(+) HEK293 cells; HEK293 cells stably expressing human ZnT8
T2 sequence (looked up): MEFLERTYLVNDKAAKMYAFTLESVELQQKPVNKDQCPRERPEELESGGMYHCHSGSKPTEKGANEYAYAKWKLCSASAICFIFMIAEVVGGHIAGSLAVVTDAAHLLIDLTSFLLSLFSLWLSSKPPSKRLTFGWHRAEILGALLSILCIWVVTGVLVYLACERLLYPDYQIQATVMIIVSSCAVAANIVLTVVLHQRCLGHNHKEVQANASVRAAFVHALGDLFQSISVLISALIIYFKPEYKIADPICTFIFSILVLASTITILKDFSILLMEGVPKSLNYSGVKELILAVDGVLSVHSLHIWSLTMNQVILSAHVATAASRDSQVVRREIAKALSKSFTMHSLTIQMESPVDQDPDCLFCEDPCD
As to the kind of experiment: flow cytometry, serial mAb dilutions on fixed, permeabilized HEK293 cells stably expressing human ZnT8; one-component fit. From the text: FIG. 6A-6C. mAb binding affinity. (FIG. 6A) Representative confocal microscopy images of immunofluorescence staining of fixed and saponin-permeabilized HEK293 cells with mAb20 or mAb39 staining as indicated. ZnT8(+) or ZnT8(−) denotes HEK293 cells w/o ZnT8 over-expression. Red: mAb20 or mAb39 staining, blue: DAPI, scale bar: 5 um. (FIG. 6B) Histograms of flow cytometry counting events. Arrows indicate leftward shifts of the histogram as a result of mAb serial dilutions. (FIG. 6C) mAb binding to HEK293 cells w/o ZnT8 overexpression as indicated. Immunofluorescence intensities of mAb20 or mAb39 labeling in serial dilutions were obtained from (FIG. 6B). Solid lines are least-squares fits of the binding data to a one-component binding process.
Flow cytometry analysis. HEK293 cells w/o ZnT8 over-expression were fixed, permeabilized, and resuspended in PBS plus 5% BSA at a density of 1×10⁶/ml as described previously (43). Aliquots of 100 μl cell suspension were stained with mAb20 or mAb39 in 3-fold serial dilutions for 2 hours at RT, and then stained with Alexa fluor 647-conjugated donkey-anti-mouse secondary antibody in 1:1000 dilution with 5% BSA (Thermo Fisher Scientific, cat. #A31571). The labeled cells were analyzed immediately by flow cytometry. […]
Binding affinity. […] No mAb staining was detected in parental HEK293 cells without ZnT8 over-expression. […]
(In flow cytometry, cells or beads pass a laser one at a time.)

Substitutions are numbered along the chain they refer to.

B1: mAb20 (antibody, V domains shown)
VH: QIQLVQSGPELKKPGETVKISCKASGYIFTNYPMHWVKQAPGKGLKWMGWINTYSGVPTHADDFKGRFAFSLETSANSAFLQINNLKNEDTATYFCTRSRITPTGGYAMDYWGQGTSVTVSS
VL: DVVMTQTPLSLPVSLGDQASISCRSSQSLVHSNGNTYLHWYLQKPGQSPNLLISKVSNRFSGVPERFSGSGSGTDFTLKISRVEAEDLGVYFCSQNTHVPWTFGGGTKLEIKR
notes: Mouse hybridoma mAb purified on protein A/G; In some assays it was labelled with Alexa Fluor 488 or terbium cryptate; also called monoclonal antibody mAb20; anti-ZnT8 mAb20
In the case of B1, the Kd was determined as 1420 nM with mouse ZnT8-His and 0.8 nM in experiment [1].

B2: mAb39 (antibody, V domains shown)
VH: QVQLQQPGAELVKPGASVKLSCKASGYSFTTYWMHWVKQRPGQGLEWVGDINPRNGRTNYNEKSKSKATLTVDISSSTVYMQVSSLTSEDSAVYYCAIWSGAMDYWGPGTSVTVSS
VL: B1 VL with A19P, R24K, S32N, N50K, S54Y, E65D, N96T, W101P
notes: Mouse hybridoma mAb purified on protein A/G; In some assays it was labelled with Alexa Fluor 555 or d2; also called monoclonal antibody mAb39; anti-ZnT8 mAb39
Regarding B2, the values for the Kd (in the experiment with mouse ZnT8-His; in experiment [1]) were 35.8 nM and 0.7 nM, respectively.
